Measurements reported in US20100313308.

Columns and labels:
[1] = target: his-tagged ubiquitin-extension protein UBQ1
[2] = target: his-tagged polyubiquitin UBQ10 (hexameric polyubiquitin), Q8H159
[3] = target: multiubiquitin chain linked by iso-peptide

Sequence of his-tagged polyubiquitin UBQ10 (hexameric polyubiquitin), Q8H159 (Q8H159 whole entry, looked up): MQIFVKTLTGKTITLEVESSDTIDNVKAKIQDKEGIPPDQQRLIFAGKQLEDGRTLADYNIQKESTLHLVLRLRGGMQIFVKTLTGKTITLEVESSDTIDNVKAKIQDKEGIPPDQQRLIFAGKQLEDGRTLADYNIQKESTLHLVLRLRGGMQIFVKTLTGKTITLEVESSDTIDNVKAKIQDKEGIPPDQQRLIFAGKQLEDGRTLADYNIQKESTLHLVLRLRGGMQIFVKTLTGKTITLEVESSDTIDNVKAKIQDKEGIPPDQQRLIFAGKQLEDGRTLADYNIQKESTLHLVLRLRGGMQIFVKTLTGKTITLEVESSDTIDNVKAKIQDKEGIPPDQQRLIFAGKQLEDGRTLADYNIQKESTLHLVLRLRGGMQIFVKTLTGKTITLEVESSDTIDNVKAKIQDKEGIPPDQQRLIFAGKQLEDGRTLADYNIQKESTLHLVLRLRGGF

Protein	in vitro DUB activity assay (co-expression in E. coli, immunoblot with anti-ubiquitin antibody) [1]	in vitro DUB activity assay (co-expression in E. coli, immunoblot with anti-ubiquitin antibody) [2]	in vitro DUB activity assay (data not shown) [3]
GST-UBP15 (protein) MLEPRGADIPILFLVLVVLPVVAYILLGKWSNISEKRVRANLLAQMAAEEALRAETVVNADRGVRFESVATENRAQRTRTKTVSAGGGAVRAEFDAGARETVAEQRSDSVTATCGVTVVAPVNNNELHVCARCFGPAKTRCSRCKSVRYCSGKCQIIHWRVAHKDECVPVESCSSSSERVSFEKDSVLYDHGMDSTMYSNNTTQAAKGKTSKSSVDFASLGISQNDITPQINTQGRKSVGKQHSSKANRESCRRDSATVFDSSDEAASAGGDNKTSHIKHKSRGNSYAAETNPRRHSVDSSAVQMNGQSFVSGMQESHKHENNLGVRSSFGCPNTQYPSNGTRTATLPRTGINKSGEQSCTETSKKGQVAAVSKTVRSKDTGISEESNGISSTMGIMKMMGLRNSTKHDDRYKNLKMLFPYEEFLKFFQCEVFDLSPRGLVNCGNSCYANAVLQSLTCTKPLVAYLLRRSHSRSCSGKDWCLMCELEQHVMMLRESGGPLSASRILSHMRSINCQIGDGSQEDAHEFLRLLVASMQSICLERLGGETKVDPRLQETTLVQHMFGGRLRSKVKCLRCDHESERYENIMDLTLEIYGWVESLQDALTQFTRPEDLDGENMYRCSRCAGYVRARKELSIHEAPNILTIVLKRFQEGRYGKINKCISFPEMLDMIPFMTRTGDVPPLYMLYAVIVHLDTLNASFSGHYISYVKDLRGNWYRIDDSEIHPVPMTQVMSEGAYMLFYMRSYPRPQRGEHNGKAPVHHSQPRNEMKEQRKPVNRFKPRADHKNTESSSSEWSLFTSSDEASFTTESTRDSFSTIDYTDVCHVVDSSSPFAIFNNVYHNVEPSPHNTVACRMFSGTKPETRYFVEQETNHNNTVVLDATPSLYPIPAPYPPHDYYDQSMYVNYETNPEFNNGQDQDRTYSYW	UBP15 can cleave substrate UBQ1 (ubiquitin-extension protein)	UBP15 can cleave substrate UBQ10 (hexameric polyubiquitin)	UBP15 can only cleave a-linked peptide (polyubiquitin and ubiquitin-extension gene) (FIG. 5A), not c-linked isopeptide (multiubiquitin chain linked by iso-peptide) (data not shown)
GST-UBP15C447A (protein) MLEPRGADIPILFLVLVVLPVVAYILLGKWSNISEKRVRANLLAQMAAEEALRAETVVNADRGVRFESVATENRAQRTRTKTVSAGGGAVRAEFDAGARETVAEQRSDSVTATCGVTVVAPVNNNELHVCARCFGPAKTRCSRCKSVRYCSGKCQIIHWRVAHKDECVPVESCSSSSERVSFEKDSVLYDHGMDSTMYSNNTTQAAKGKTSKSSVDFASLGISQNDITPQINTQGRKSVGKQHSSKANRESCRRDSATVFDSSDEAASAGGDNKTSHIKHKSRGNSYAAETNPRRHSVDSSAVQMNGQSFVSGMQESHKHENNLGVRSSFGCPNTQYPSNGTRTATLPRTGINKSGEQSCTETSKKGQVAAVSKTVRSKDTGISEESNGISSTMGIMKMMGLRNSTKHDDRYKNLKMLFPYEEFLKFFQCEVFDLSPRGLVNCGNSAYANAVLQSLTCTKPLVAYLLRRSHSRSCSGKDWCLMCELEQHVMMLRESGGPLSASRILSHMRSINCQIGDGSQEDAHEFLRLLVASMQSICLERLGGETKVDPRLQETTLVQHMFGGRLRSKVKCLRCDHESERYENIMDLTLEIYGWVESLQDALTQFTRPEDLDGENMYRCSRCAGYVRARKELSIHEAPNILTIVLKRFQEGRYGKINKCISFPEMLDMIPFMTRTGDVPPLYMLYAVIVHLDTLNASFSGHYISYVKDLRGNWYRIDDSEIHPVPMTQVMSEGAYMLFYMRSYPRPQRGEHNGKAPVHHSQPRNEMKEQRKPVNRFKPRADHKNTESSSSEWSLFTSSDEASFTTESTRDSFSTIDYTDVCHVVDSSSPFAIFNNVYHNVEPSPHNTVACRMFSGTKPETRYFVEQETNHNNTVVLDATPSLYPIPAPYPPHDYYDQSMYVNYETNPEFNNGQDQDRTYSYW	Cysteine^447 is essential for this DUB activity	Cysteine^447 is essential for this DUB activity	–
GST-UBP15C447S (protein) MLEPRGADIPILFLVLVVLPVVAYILLGKWSNISEKRVRANLLAQMAAEEALRAETVVNADRGVRFESVATENRAQRTRTKTVSAGGGAVRAEFDAGARETVAEQRSDSVTATCGVTVVAPVNNNELHVCARCFGPAKTRCSRCKSVRYCSGKCQIIHWRVAHKDECVPVESCSSSSERVSFEKDSVLYDHGMDSTMYSNNTTQAAKGKTSKSSVDFASLGISQNDITPQINTQGRKSVGKQHSSKANRESCRRDSATVFDSSDEAASAGGDNKTSHIKHKSRGNSYAAETNPRRHSVDSSAVQMNGQSFVSGMQESHKHENNLGVRSSFGCPNTQYPSNGTRTATLPRTGINKSGEQSCTETSKKGQVAAVSKTVRSKDTGISEESNGISSTMGIMKMMGLRNSTKHDDRYKNLKMLFPYEEFLKFFQCEVFDLSPRGLVNCGNSSYANAVLQSLTCTKPLVAYLLRRSHSRSCSGKDWCLMCELEQHVMMLRESGGPLSASRILSHMRSINCQIGDGSQEDAHEFLRLLVASMQSICLERLGGETKVDPRLQETTLVQHMFGGRLRSKVKCLRCDHESERYENIMDLTLEIYGWVESLQDALTQFTRPEDLDGENMYRCSRCAGYVRARKELSIHEAPNILTIVLKRFQEGRYGKINKCISFPEMLDMIPFMTRTGDVPPLYMLYAVIVHLDTLNASFSGHYISYVKDLRGNWYRIDDSEIHPVPMTQVMSEGAYMLFYMRSYPRPQRGEHNGKAPVHHSQPRNEMKEQRKPVNRFKPRADHKNTESSSSEWSLFTSSDEASFTTESTRDSFSTIDYTDVCHVVDSSSPFAIFNNVYHNVEPSPHNTVACRMFSGTKPETRYFVEQETNHNNTVVLDATPSLYPIPAPYPPHDYYDQSMYVNYETNPEFNNGQDQDRTYSYW	Cysteine^447 is essential for this DUB activity	Cysteine^447 is essential for this DUB activity	–
